Numbering of substitutions follows the chain as printed. Entries after “also recorded” stand apart in the source; their conditions may differ. Read-outs that look alike come from different tables or passages of the source. Where a SMILES comes first, the peptide text is derived from it. Where no end group is shown, it is not given here.
What was measured:
P/CAF bromodomain [1] = target: T1, P/CAF bromodomain (Homo sapiens, UniProt Q92831, P804A/P805A); test: NMR ligand titration (2D 15N-/13C-HSQC chemical shift changes) of the P/CAF bromodomain; format: binding; settings: for binding to the P/CAF bromodomain (qualitative): NMR titration, chemical shift changes
T1 construct: poly-His (N, cleaved yes); made in house; host or cells: Escherichia coli BL21(DE3)
T1 sequence (Q92831 719-832 P804A/P805A): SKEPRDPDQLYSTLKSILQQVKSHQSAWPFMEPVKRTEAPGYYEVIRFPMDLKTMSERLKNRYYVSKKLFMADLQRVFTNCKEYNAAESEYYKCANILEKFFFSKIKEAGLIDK
Protocol: (§1) NMR spectroscopy: All NMR spectra were acquired at 30° C. on a Bruker DRX600 or DRX500 spectrometer. The backbone assignments of the ^1H, ^13C, and ^15N resonances were achieved using deuterium-decoupled triple-resonance experiments of HNCACB and HN(CO)CACB [Yamazaki et al., J. Am. Chem. Soc. 116:11655-11666 (1994)] recorded using the uniformly ^15N/^13C-labeled and fractionally deuterated protein. The side-chain atoms were assigned from 3D HCCH-TOCSY [Clore and Gronenbom, Meth. Enzymol. 239:249-363 (1994)] and (H)C(CO)NH-TOCSY [Logan et al., J. Biolmol. NMR 3:225-231 (1993)] data collected on the uniformly ^15N/^13C-labeled protein. Stereospecific assignments of methyl groups of the Val and Leu residues were obtained using a fractionally ^13C-labeled sample [Neri et al., Biochemistry 28:7510-7516 (1989)]. The NOE-derived distance restraints were obtained from ^15N- or ^13C-edited 3D NOESY spectra. φ-angle restraints were determined based on the ^3JHn,Hα coupling constants measured in a 3D H spectrum [Clore and Gronenbom, Meth. Enzymol. 239:249-363 (1994)]. Slowly exchanging amide protons were identified from a series of 2D ^15N-HSQC spectra recorded after the H2O buffer was changed to a ^2H2O buffer. The intermolecular NOEs used in defining the structure of the bromodomain/Ac-histamine complex were detected in ^13C-edited (F1), ^13C/^15N-filtered (F3) 3D NOESY spectrum [Clore and Gronenbom, Meth. Enzymol. 239:249-363 (1994)]. All NMR spectra were processed with the NMRPipe/NMRDraw programs and analyzed using NMRView [Johnson and Blevins, J. Biomol., NMR 4:603-614 (1994)].
(§2) Ligand titration: Ligand titration experiments were performed by recording a series of 2D ^15N—- and ^13C-HSQC spectra on the uniformly ^15N-, and ^15N/^13C-labelled bromodomain (˜0.3 mM), respectively, in the presence of different amounts of ligand concentration ranging from 0 to approximately 2.0 mM. The protein sample and the stock solutions of the ligands were all prepared in the same aqueous buffer containing 100 mM phosphate and 5 mM perdeuterated DTT at pH 6.5.
as §1, with “the uniformly ^15N/^13C-labelled and fractionally” for “the uniformly ^15N/^13C-labeled and fractionally”, “of the valine and leucine” for “of the Val and Leu”, “valine and leucine residues were” for “Val and Leu residues were”, “3D NOESY spectra [Clore and Gronenbom, Meth. Enzymol. 239:249-363 (1994)]. φ-angle restraints” for “3D NOESY spectra. φ-angle restraints”, “on the ^3JHN,H coupling constants” for “on the ^3JHn,Hα coupling constants”, “a 3D HNHA spectrum [Clore” for “a 3D H spectrum [Clore”
Ligand titration experiments were performed by recording a series of 2D ^15N-HSQC spectra on the uniformly ^15N-labelled bromodomain (˜0.3 mM), respectively, in the presence of different amounts of ligand concentration ranging from 0 to ˜2.0 mM.

P/CAF bromodomain [2] = target: T1, P/CAF bromodomain; test: Peptide competition assay with biotinylated wild type Tat AcK50 peptide (western blot); format: binding; settings: protein ~10 μM, wild type:mutant peptide 1:2
Protocol: Peptide binding assay. […] Streptavidin agarose (10 μL) was added to mixture and the beads were washed twice in the Tris buffer with 500 mM NaCl and 0.1% NP-40. Proteins were eluted from the argarose beads in SDS buffer and separated on a 14% SDS-PAGE. The resolved proteins were transferred onto nitrocellulose membrane (Pharmacia), and the membrane was blocked overnight with 5% non-fat milk in washing buffer of 20 mM Tris, pH 7.5, plus 150 mM NaCl and 0.1% Tween-20 at 4° C. Western blotting was performed with anti-GST antibody (Sigma) and goat anti-rabbit IgG conjugated with horseradish-peroxidase (Promega) and developed by chemiluminescence. Peptide competition experiments were performed by incubating various non-biotinylated and mutant Tat peptide with the P/CAF bromodomain and the biotinylated and wild type Tat peptide. The molar ratio of the wild type and mutant Tat peptides in the mixture were kept at 1:2. The binding results were analyses by using the procedure as described above.

[3] = Structural integrity of P/CAF bromodomain mutants by 15N-HSQC spectra; format: physicochemical; design: key: ++++: as stable as the wild-type; +++: mildly destabilized; ++: moderately destabilized; −: completely unfolded; settings: relative to wild-type
Protocol: (§3) Site-directed mutagenesis: Mutant proteins were prepared using the QuickChange site-directed mutagenesis kit (Stratagene). The presence of appropriate mutations was confirmed by DNA sequencing.

[4] = test system: lysine-acetylated H4 peptide; test: NMR titration of wild-type and mutant P/CAF bromodomain proteins with the H4 AcK peptide; format: binding; settings: for binding of bromodomain mutants to the lysine-acetylated H4 peptide (qualitative): NMR titration; for Kd: read-out: H4 AcK-Peptide Binding KD
Protocol: as §3, §2

[5] = test system: biotinylated and lysine-acetylated Tat peptide; test: Mutational analysis: binding of P/CAF bromodomain mutant proteins to immobilized lysine-acetylated Tat peptide; design: species or system HIV-1; settings: peptide immobilized onto streptavidin agarose
Protocol: Site directed mutagenesis. Site directed mutagenesis was performed on selected residues of P/CAF Bromodomain using quick-change kit (Stratagene). The mutants were confirmed by sequencing and proteins were expressed and purified as above.
Peptide binding assay. Equal amount (10 μM) of GST, GST-P/CAF bromodomain and its mutant proteins, as well as various GST-fusion bromodomains from CBP and TIF1β were incubated for at least two hours at room temperature with the N-terminal biotinylated and lysine-acetylated Tat peptide (50 μM) in a 50 mM Tris buffer of pH 7.5, containing 50 mM NaCl, 0.1% BSA and 1 mMDTT. Streptavidin agarose (10 μL) was added to mixture and the beads were washed twice in the Tris buffer with 500 mM NaCl and 0.1% NP-40. Proteins were eluted from the argarose beads in SDS buffer and separated on a 14% SDS-PAGE. The resolved proteins were transferred onto nitrocellulose membrane (Pharmacia), and the membrane was blocked overnight with 5% non-fat milk in washing buffer of 20 mM Tris, pH 7.5, plus 150 mM NaCl and 0.1% Tween-20 at 4° C. Western blotting was performed with anti-GST antibody (Sigma) and goat anti-rabbit IgG conjugated with horseradish-peroxidase (Promega) and developed by chemiluminescence. Peptide competition experiments were performed by incubating various non-biotinylated and mutant Tat peptide with the P/CAF bromodomain and the biotinylated and wild type Tat peptide. The molar ratio of the wild type and mutant Tat peptides in the mixture were kept at 1:2. The binding results were analyses by using the procedure as described above.
To identify the amino acid residues of the P/CAF bromodomain that are important for complex formation, mutant proteins were tested for binding to the biotinylated and lysine-acetylated Tat peptide that is immobilized onto streptavidin agarose (FIG. 10A). […] The results from the mutational analysis agree with the observations of intermolecular NOEs in the NMR spectra.

P/CAF = target: T2, P/CAF (Homo sapiens, UniProt Q92831); test: Western blot assay to detect P/CAF interaction with the Tat protein in cells; format: cell-based; settings: FLAG-Tat, HA-P/CAF
T2 construct: HA; expressed in transfected cells
T2 sequence (Q92831 whole entry): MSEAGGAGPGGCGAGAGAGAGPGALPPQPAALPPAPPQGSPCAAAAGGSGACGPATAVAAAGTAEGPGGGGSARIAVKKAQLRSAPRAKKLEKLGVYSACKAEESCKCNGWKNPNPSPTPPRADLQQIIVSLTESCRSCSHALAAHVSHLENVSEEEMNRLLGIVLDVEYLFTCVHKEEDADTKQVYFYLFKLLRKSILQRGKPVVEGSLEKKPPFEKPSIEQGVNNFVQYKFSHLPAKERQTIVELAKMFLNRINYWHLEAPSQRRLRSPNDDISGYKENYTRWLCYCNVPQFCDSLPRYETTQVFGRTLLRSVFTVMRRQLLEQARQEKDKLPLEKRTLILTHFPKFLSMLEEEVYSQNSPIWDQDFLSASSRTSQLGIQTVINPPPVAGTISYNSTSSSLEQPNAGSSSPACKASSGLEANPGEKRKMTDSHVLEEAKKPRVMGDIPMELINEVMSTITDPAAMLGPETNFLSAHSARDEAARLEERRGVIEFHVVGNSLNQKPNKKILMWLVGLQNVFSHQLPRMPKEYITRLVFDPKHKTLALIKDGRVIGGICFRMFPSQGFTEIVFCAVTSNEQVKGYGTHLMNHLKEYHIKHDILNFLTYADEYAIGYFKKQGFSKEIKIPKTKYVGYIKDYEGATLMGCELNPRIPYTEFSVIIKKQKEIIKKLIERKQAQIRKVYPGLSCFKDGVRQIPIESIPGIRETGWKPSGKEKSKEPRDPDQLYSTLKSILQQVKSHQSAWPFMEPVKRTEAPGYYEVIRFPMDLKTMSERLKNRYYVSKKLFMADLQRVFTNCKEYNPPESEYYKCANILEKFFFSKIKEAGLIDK
From the text: FIGS. 8A-8B show a western blot assay to detect P/CAF interaction with the Tat protein. Note that the protein-protein interaction was only observed with the wild type Tat but not with the Tat K50R/K51R mutant protein. The FLAG was joined to the Tat peptide, whereas the HA-tag was joined to P/CAF.

[6] = test system: Tat transactivation activity; test: Superinduction of Tat transactivation activity by P/CAF; format: cell-based, HIV-1
From the text: FIG. 7 is a bar graph of the measurement of superinduction of Tat transactivation activity by P/CAF. Tat-KK is the wild type Tat protein, and Tat-RR is the double mutant Tat carrying lysine to arginine mutations at K50 and K51 positions.

[7] = estimated from amide chemical shift changes in 15N-HSQC vs ligand concentration

## CC(=O)NCCCC[C@H](NC(=O)CNC(=O)CNC(=O)[C@H](CCCCN)NC(=O)CNC(=O)[C@H](CCCNC(=N)N)NC(=O)CNC(=O)[C@@H](N)CO)C(=O)NCC(=O)N[C@@H](CC(C)C)C(=O)NCC(=O)N[C@@H](CCCCN)C(=O)O [SGRGKGG-AcK-GLGK]
P/CAF bromodomain [1]; estimated from NMR titration, 15N-HSQC, pH 6.5, 30° C., read-out: dissociation constant (KD)
  Kd: 346 ± 54 µM

## CC(=O)NCCCC[C@H](NC(=O)[C@H](CCCCN)NC(=O)[C@H](CS)NC(=O)[C@H](Cc1ccc(O)cc1)NC(=O)[C@H](CS)NC(=O)[C@H](CC(N)=O)NC(=O)[C@@H](N)[C@@H](C)O)C(=O)N[C@@H](CS)C(=O)N[C@@H](CS)C(=O)N[C@@H](Cc1ccccc1)C(=O)N[C@@H](Cc1c[nH]cn1)C(=O)O [Tat AcK 28 peptide, TNCYCK-AcK-CCFH] (H-TNCYCKK(Ac)CCFH-OH)
P/CAF bromodomain [2]
  competition with / binding relative to Tat AcK50 peptide (qualitative): almost no competition

## CC(=O)NCCc1cnc[nH]1 [acetyl-histamine]
P/CAF bromodomain [1]
  binding to the P/CAF bromodomain (qualitative): chemical shift perturbations with similar concentration dependence and does

## CC(=O)N[C@@H](Cc1c[nH]cn1)C(=O)O [acetyl-histidine]
P/CAF bromodomain [1]
  binding to the P/CAF bromodomain (qualitative): did not bind; also recorded: does not to bind

## CC(=O)N[C@@H](CCCCN)C(=O)O [acetyl-lysine]
P/CAF bromodomain [1]
  binding to the P/CAF bromodomain (qualitative): did not bind; also recorded: does not appear to bind

## ARKSTGG-AcK-APRKQL (ARKSTGGXAPRKQL; acetyl-lysine; synthetic bromodomain peptide)
P/CAF bromodomain [1]
  binding to the P/CAF bromodomain (qualitative): bind to the P/CAF bromodomain

## ISYGR-AcK-KRRQRR
P/CAF bromodomain [1]
  binding to the P/CAF bromodomain (qualitative): bind to the P/CAF bromodomain

## QSTSRHK-AcK-LMFKTE (QSTSRHKXLMFKTE; acetyl-lysine; synthetic bromodomain peptide)
P/CAF bromodomain [1]
  binding to the P/CAF bromodomain (qualitative): bind to the P/CAF bromodomain

## SYGRK(Ac)KRRQRC [Tat AcK50 peptide, SYGR-AcK-KRRQRC]
P/CAF bromodomain [1]
  Kd: ~20 µM

B1: Tyr809Ala: P/CAF bromodomain point mutant, Tyr809 to Ala (protein)
chain: T1 sequence (Q92831 719-832 P804A/P805A) with Y91A
[3]
  Structural Integrity: ++++
[4]
  binding of bromodomain mutants to the lysine-acetylated H4 peptide (qualitative): completely abrogated
[4]; [7]
  H4 AcK-Peptide Binding KD (μM): No Binding ^c
[5]
  binding of alanine point mutants to the Tat AcK50 peptide (qualitative): nearly complete loss or significantly reduced binding

B2: Tyr802Ala: P/CAF bromodomain point mutant, Tyr802 to Ala (protein)
chain: T1 sequence (Q92831 719-832 P804A/P805A) with Y84A
[3]
  Structural Integrity: +++
[4]
  binding of bromodomain mutants to the lysine-acetylated H4 peptide (qualitative): significantly reduced ligand binding affinity
[4]; [7]
  Kd: > 10000 µM
[5]
  binding of alanine point mutants to the Tat AcK50 peptide (qualitative): nearly complete loss or significantly reduced binding

B3: Tyr760Ala: P/CAF bromodomain point mutant, Tyr760 to Ala (protein)
chain: T1 sequence (Q92831 719-832 P804A/P805A) with Y42A
[3]
  Structural Integrity: +++
[4]
  binding of bromodomain mutants to the lysine-acetylated H4 peptide (qualitative): significantly reduced ligand binding affinity
[4]; [7]
  Kd: > 10000 µM

B4: Wild-Type: wild-type bromodomain of P/CAF (residues 719-832 of SEQ ID NO:2) (protein, listed as Homo sapiens)
chain: T1 sequence (Q92831 719-832 P804A/P805A)
[3]
  Structural Integrity: ++++
[4]; [7]
  Kd: 346 ± 54 µM

B5: Val752Ala (protein)
chain: T1 sequence (Q92831 719-832 P804A/P805A) with V34A
[3]
  Structural Integrity: ++
[4]
  binding of bromodomain mutants to the lysine-acetylated H4 peptide (qualitative): significantly reduced ligand binding affinity
[4]; [7]
  Kd: > 10000 µM
[5]
  binding of alanine point mutants to the Tat AcK50 peptide (qualitative): nearly complete loss or significantly reduced binding

B6: Tat: wild type HIV-1 Tat protein (SEQ ID NO:45) (protein)
chain: MEPVDPRLEPWKHPGSQPKTASNNCYCKRCCLHCQVCFTKKGLGISYGRKKRRQRRRAPQDSKTHQVSLSKQPASQPRGDPTGPKESKKKVERETETDPED
modifications: Human immunodeficiency virus type 1; Tat protein
P/CAF
  specific interaction with P/CAF in cells: detected
[6]
  increase of Tat transactivation activity upon P/CAF stimulation: ≤ 30 fold
